Measurements from patent publication US6551840B2, “Method of screening TGF-β-inhibiting substances” (Chugai Seiyaku Kabushiki Kaisha, priority 1997, dated 2003).

T1: binding between TAK1 and TAB1 (Homo sapiens, UniProt O43318)
T1 construct: amino acid Met at amino acid position 1 to amino acid Ser at amino acid position 579; made in house; host or cells: COS-7 cells transfected with pCOS-TAK1 or pCOS-FTAB1; unpurified cell extracts
T1 sequence (O43318 1-579 isoform O43318-2): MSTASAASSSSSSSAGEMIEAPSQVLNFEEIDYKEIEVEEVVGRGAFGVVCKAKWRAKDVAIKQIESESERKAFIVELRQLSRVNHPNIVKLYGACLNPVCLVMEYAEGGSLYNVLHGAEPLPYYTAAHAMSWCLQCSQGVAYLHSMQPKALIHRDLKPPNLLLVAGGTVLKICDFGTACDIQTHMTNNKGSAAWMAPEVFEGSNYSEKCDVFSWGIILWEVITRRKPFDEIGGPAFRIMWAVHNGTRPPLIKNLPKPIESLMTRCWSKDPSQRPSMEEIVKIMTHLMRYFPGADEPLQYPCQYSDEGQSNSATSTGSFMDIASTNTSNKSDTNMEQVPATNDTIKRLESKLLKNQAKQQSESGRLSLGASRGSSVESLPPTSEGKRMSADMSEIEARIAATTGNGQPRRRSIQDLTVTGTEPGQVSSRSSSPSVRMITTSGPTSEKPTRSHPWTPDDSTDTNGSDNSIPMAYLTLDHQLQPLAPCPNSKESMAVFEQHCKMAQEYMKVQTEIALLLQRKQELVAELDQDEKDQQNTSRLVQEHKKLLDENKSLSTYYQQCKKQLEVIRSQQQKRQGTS

T2: human TAK1-6×His polypeptide (Homo sapiens, UniProt O43318)
T2 construct: amino acid Met at amino acid position 1 to amino acid Ser at amino acid position 579; made in house; host or cells: Sf9 insect cells, recombinant baculovirus
T2 sequence (O43318 1-579 isoform O43318-2): T1 sequence (O43318 1-579 isoform O43318-2)

T3: binding between the recombinant MBP-TAB1C-FLAG polypeptide and the recombinant TAK1 polypeptide (Homo sapiens, UniProt O43318)
T3 construct: amino acid Met at amino acid position 1 to amino acid Ser at amino acid position 579; made in house; host or cells: TAK1-6xHis: Sf9/baculovirus; MBP-TAB1C-FLAG: E. coli periplasm (pMAL-p2)
T3 sequence (O43318 1-579 isoform O43318-2): T1 sequence (O43318 1-579 isoform O43318-2)

B1: MBP-TAB1C-FLAG: fusion polypeptide of 81 amino acids at the carboxy terminal of human TAB1 and maltose-binding protein, with FLAG tag (protein)
chain: ASTLDEATPTLTNQSPTLTLQSTNTHTQSSSSSSDGGLFRSRPAHSLPPGEDGRVEPYVDFAEFYRLWSVDHGEQSVVTAPDYKDDDDK
modifications: left off: large carriers
B2: TAB1-FLAG: full-length human TAB1 with a FLAG tag added to the carboxy terminal (SEQ ID NO: 11) (protein)
chain: MAAQRRSLLQSEQQPSWTDDLPLCHLSGVGSASNRSYSADGKGTESHPPEDSWLKFRSENNCFLYGVFNGYDGNRVTNFVAQRLSAELLLGQLNAEHAEADVRRVLLQAFDVVERSFLESIDDALAEKASLQSQLPEGVPQHQLPPQYQKILERLKTLEREISGGAMAVVAVLLNNKLYVANVGTNRALLCKSTVDGLQVTQLNVDHTTENEDELFRLSQLGLDAGKIKQVGIICGQESTRRIGDYKVKYGYTDIDLLSAAKSKPIIAEPEIHGAQPLDGVTGFLVLMSEGLYKALEAAHGPGQANQEIAAMIDTEFAKQTSLDAVAQAVVDRVKRIHSDTFASGGERARFCPRHEDMTLLVRNFGYPLGEMSQPTPSPAPAAGGRVYPVSVPYSSAQSTSKTSVTLSLVMPSQGQMVNGAHSASTLDEATPTLTNQSPTLTLQSTNTHTQSSSSSSDGGLFRSRPAHSLPPGEDGRVEPYVDFAEFYRLWSVDHGEQSVVTAPGTGGSDYKDDDDK
modifications: C-terminal FLAG tag

Key:
[1] = target: T1, binding between TAK1 and TAB1; assay: Immunoprecipitation and Western analysis binding-inhibition study using synthetic peptides; parameters: dose or concentration left out as unconfirmed; settings: COS-7 cell extracts with TAK1-6×His or FLAG-TAB1; compared to no peptide
Source text: The fact that a synthetic peptide containing the amino acid sequence identified as the TAK1 binding region can inhibit binding between TAK1 and TAB1 was confirmed by the following experiment. Thus, a peptide TAB1C-1 (SEQ ID NO: 40) comprising 16 amino acid residues containing the TAK1 binding region of TAB1 described in the above Example and a control peptide TAB1C-2 (SEQ ID NO: 41) containing an amino acid sequence from Gln at position 437 to Gln at position 451 of TAB1 were each synthesized, and were evaluated for their effects on the binding between TAK1 and TAB1. The TAK1 and TAB1 used in the present invention were prepared in the following manner. […]
Subsequently, cell extracts each containing TAK1-6×His or FLAG-TAB1 and a 5 mM synthetic peptide were mixed to a final concentration of […], respectively, and then incubated overnight at 4° C. It was then immunoprecipitated using anti-TAK1 antibody, and the amount of bound TAK1 and TAB1 was evaluated by determining the amount of TAB1 that coprecipitated by Western analysis. […] After it was blocked using a TBS solution containing 5% BSA, TAK1 in the immunoprecipitate was detected using anti-TAK1 antibody (manufactured by SantaCruz) and the coprecipitataed FLAG-TAB1 was detected using anti-FLAG M2 antibody (manufactured by Kodak). […]

[2] = target: T2, human TAK1-6×His polypeptide; assay: ELISA in vitro binding-evaluation system: MBP-TAB1C-FLAG on immobilized TAK1-6×His; settings: 100 ng TAK1-6×His per well; no increase where TAK1-6×His was not immobilized
Source text: Using the purified product obtained as above an ELISA system was constructed to detect in vitro an interaction between the recombinant human TAB1 polypeptide or the recombinant MBP-TAB1C-FLAG polypeptide and the recombinant human-TAK1 polypeptide. In the ELISA system it is intended to contact the recombinant human TAB1-FLAG polypeptide or the human MBP-TAB1C-FLAG polypeptide to a 96-well immunoplate to which the human TAK1-6×His polypeptide had been previously immobilized and thereby to detect the recombinant human TAB1-FLAG polypeptide or the recombinant MBP-TAB1C-FLAG polypeptide using a primary and secondary antibody.
(1) The purified product of human TAK1-6×His polypeptide was diluted in the immobilization buffer (0.1 M NaHCO3, 0.02% NaN3, pH 9.6). To each well of a 96-well immunoplate (manufactured by Nunc) was added 100 μl each of the diluted aqueous solution (equivalent to 100 ng of the human TAK1-6×His polypeptide), and the plate was incubated overnight at 4° C. […]
After each well was washed five times with the wash buffer, 100 μl of the color development solution (the substrate buffer; p-nitrophenyl phosphate dissolved to 1 mg/ml in 50 mM NaHCO3, 10 mM MgCl21 pH 9.8, manufactured by Sigma) was added to each well and was incubated at room temperature, and then absorbance at 405 nm was determined using a microplate reader (Model 3550, manufactured by BIO-RAD).

[3] = target: T3, binding between the recombinant MBP-TAB1C-FLAG polypeptide and the recombinant TAK1 polypeptide; assay: ELISA binding-inhibition study with TAB1-FLAG as inhibiting substance; settings: serially diluted TAB1-FLAG added together with MBP-TAB1C-FLAG
Experimental: It was investigated whether the recombinant human TAB1-FLAG polypeptide used as an inhibiting substance inhibits binding between the recombinant MBP-TAB1C-FLAG polypeptide and the recombinant TAK1 polypeptide.
In a similar manner to that in the above 5-1 (2), the recombinant human TAK1-6×His polypeptide was immobilized and was blocked. Then the recombinant human TAB1-FLAG polypeptide that was serially diluted in the dilution buffer was added as a binding-inhibiting substance to each well together with 16.5 μl each of the recombinant MBP-TAB1C-FLAG polypeptide and incubated.

Molecule	effect on binding between TAK1 and TAB1: amount of coprecipitated FLAG-TAB1 [1]	further results
TAB1C-2: control peptide containing an amino acid sequence from Gln at position 437 to Gln at position 451 of TAB1 (SEQ ID NO: 41) (CQSPTLTLQSTNTHTQ; OTHER INFORMATION: Description of Artificial Sequence: Synthetic peptide)	no decrease in binding between TAK1 and TAB1 was observed	
TAB1C-1: peptide comprising 16 amino acid residues containing the TAK1 binding region of TAB1 (SEQ ID NO: 40) (CVEPYVDFAEFYRGRK; OTHER INFORMATION: Description of Artificial Sequence: Synthetic peptide)	a decrease in the amount of coprecipitated FLAG-TAB1 was observed	
B1		binding to immobilized human TAK1-6×His polypeptide, absorbance at 405 nm [2]: absorbance increased depending on the concentration
B2		inhibition of binding between MBP-TAB1C-FLAG and TAK1-6×His, absorbance [3]: decrease in absorbance dependent on the concentration
